# In the Immune Epitope Database (IEDB):
# Legend:
# Test in all cases: IEDB peptide-MHC binding, purified MHC/competitive/radioactivity; filed as Kd, often an IC50 or EC50 that approximates it; ≥ and ≤ were set here for values at or beyond the usual limits of such assays
# HLA-A*03:01 = target: HLA-A*03:01
# HLA-A*11:01 = target: HLA-A*11:01
# HLA-A*31:01 = target: HLA-A*31:01
# HLA-A*33:01 = target: HLA-A*33:01
# HLA-A*68:01 = target: HLA-A*68:01
# [1] = source organism: SARS coronavirus Tor2
# [2] = source organism: Vaccinia virus WR
# [3] = source organism: Dengue virus 2 Jamaica/1409/1983
# [4] = source organism: Dengue virus 1 Brazil/97-11/1997
# [5] = source organism: Dengue virus 3 Martinique/1243/1999
# [6] = source organism: Dengue virus 1 Singapore/S275/1990
# [7] = source organism: Mammarenavirus machupoense
# [8] = source organism: Lassa virus Josiah
Sequence,Kd (HLA-A*03:01; [2]) [nM],Kd (HLA-A*11:01; [2]) [nM],Kd (HLA-A*31:01; [2]) [nM],Kd (HLA-A*33:01; [2]) [µM],Kd (HLA-A*68:01; [2]) [nM],also measured
AAAYFVGYLK,,,,,,Kd (HLA-A*03:01; [1]): 9.39 nM; Kd (HLA-A*11:01; [1]): 0.439 nM; Kd (HLA-A*31:01; [1]): 282 nM; Kd (HLA-A*33:01; [1]): 5.61 µM; Kd (HLA-A*68:01; [1]): 1.08 nM
AAKYVEHDPR,≥ 31000,≥ 39000,171,1.48,251,
AARGYISTR,,,,,,Kd (HLA-A*31:01; [3]): 11.1 nM; Kd (HLA-A*33:01; [3]): 0.315 µM
AGLAFSLMK,,,,,,Kd (HLA-A*11:01; [4]): 11.2 nM
AIDAYPLTK,,,,,,Kd (HLA-A*11:01; [1]): 11.6 nM; Kd (HLA-A*31:01; [1]): 8890 nM; Kd (HLA-A*33:01; [1]): ≥ 44.6 µM; Kd (HLA-A*68:01; [1]): 6970 nM
AIGTSITQK,,,,,,Kd (HLA-A*03:01; [4]): 9.33 nM; Kd (HLA-A*11:01; [4]): 60.9 nM
ALTALNDMGK,,,,,,Kd (HLA-A*03:01; [3]): 1290 nM; Kd (HLA-A*11:01; [3]): 1370 nM
AQGLVASIK,,,,,,Kd (HLA-A*03:01; [1]): 654 nM; Kd (HLA-A*11:01; [1]): 209 nM; Kd (HLA-A*31:01; [1]): 9890 nM; Kd (HLA-A*33:01; [1]): ≥ 31.6 µM; Kd (HLA-A*68:01; [1]): ≥ 32600 nM
ATKSEHTGR,,,,,,Kd (HLA-A*31:01; [5]): 1.85 nM
ATMLDVDLR,,,,,,Kd (HLA-A*11:01; [6]): 41.5 nM
ATRLENIMWK,,,,,,Kd (HLA-A*03:01; [4]): 42.3 nM; Kd (HLA-A*11:01; [4]): 6.34 nM
ATSRTLSYYK,,,,,,Kd (HLA-A*03:01; [1]): 3.32 nM; Kd (HLA-A*11:01; [1]): 3.16 nM; Kd (HLA-A*31:01; [1]): 14.9 nM; Kd (HLA-A*33:01; [1]): 6.23 µM; Kd (HLA-A*68:01; [1]): 15.3 nM
AVLDMCAALK,,,,,,Kd (HLA-A*03:01; [1]): 12.9 nM; Kd (HLA-A*11:01; [1]): 6.06 nM; Kd (HLA-A*31:01; [1]): 80.4 nM; Kd (HLA-A*33:01; [1]): 0.756 µM; Kd (HLA-A*68:01; [1]): 117 nM
CQFDHVNTLH,,,,,,Kd (HLA-A*03:01; [7]): 18400 nM; Kd (HLA-A*11:01; [7]): 8740 nM; Kd (HLA-A*31:01; [7]): 1930 nM; Kd (HLA-A*68:01; [7]): 9280 nM
DAKNDDWKK,8230,3100,≥ 36700,2.83,104,
DFDNLIGVR,≥ 78000,≥ 77900,8030,0.0871,10700,
DSFLRKIGDK,≥ 59100,11700,3560,1.97,6270,
DTSNNIAEY,≥ 78000,≥ 5000,≥ 35600,7.61,2.74,
DVFFIPPEK,,,,,,Kd (HLA-A*68:01; source organism: Dengue virus 2 16681-PDK53): 3.62 nM
EALEYLSELK,461,225,17900,5.62,105,
EFGKAKGSR,,,,,,Kd (HLA-A*33:01; [5]): 0.125 µM
EFKEFAAGR,,,,,,Kd (HLA-A*68:01; [3]): 594 nM
ELYDTSPTK,10.5,90.2,≥ 77900,≥ 43.5,4.11,

Sequence,Kd (HLA-A*03:01; [2]) [nM],Kd (HLA-A*11:01; [2]) [nM],Kd (HLA-A*31:01; [2]) [nM],Kd (HLA-A*33:01; [2]) [µM],Kd (HLA-A*68:01; [2]) [nM],also measured
EQQQSFMPK,2120,11.3,5260,5.47,131,
EVGSIRCVKY,≥ 70100,≥ 69800,≥ 47000,≥ 47.8,1510,
EVTNPAVLR,,,,,,Kd (HLA-A*33:01; [4]): 0.0917 µM; Kd (HLA-A*68:01; [4]): 40 nM
FLMSGKGIGK,,,,,,Kd (HLA-A*03:01; [3]): 42.6 nM; Kd (HLA-A*11:01; [3]): 99.8 nM
FSLESDSIK,1570,565,960,2.22,187,
FSTSAADIKR,18000,247,11100,≥ 22.5,16.5,
GANYLGKPK,,,,,,Kd (HLA-A*03:01; [1]): 510 nM; Kd (HLA-A*11:01; [1]): 1080 nM; Kd (HLA-A*31:01; [1]): 1480 nM; Kd (HLA-A*33:01; [1]): ≥ 77.7 µM; Kd (HLA-A*68:01; [1]): 3450 nM
GMLQGRGPLK,,,,,,Kd (HLA-A*03:01; [3]): 6.17 nM; Kd (HLA-A*11:01; [3]): 37.9 nM
GVTLFFLSGK,,,,,,Kd (HLA-A*03:01; [4]): 13.1 nM; Kd (HLA-A*11:01; [4]): 23.8 nM
GVVRVWDVK,,,,,,Kd (HLA-A*03:01; [8]): 5790 nM; Kd (HLA-A*11:01; [8]): 11.1 nM; Kd (HLA-A*31:01; [8]): ≥ 45000 nM; Kd (HLA-A*33:01; [8]): ≥ 24.2 µM; Kd (HLA-A*68:01; [8]): 129 nM
HIASKINNNR,1960,4030,959,5.95,18.8,
HIVCSKTVK,291,1590,623,≥ 32.8,118,
HMIVGRQEK,,,,,,Kd (HLA-A*03:01; [3]): 66.6 nM
IILSKIPYLR,40.9,40.7,4.77,0.251,0.777,
IINDKGKQY,1940,8380,≥ 77900,≥ 77.7,≥ 77700,
IINFTISMRY,35.3,1.71,1420,5.21,690,
IISEEYLSK,103,27,10100,≥ 59.3,7850,
ILARWGSFK,,,,,,Kd (HLA-A*03:01; [6]): 2.13 nM; Kd (HLA-A*11:01; [6]): 77.8 nM
ILKKLSSIK,4.69,1090,3180,1.56,4810,
IMKSVGTGK,,,,,,Kd (HLA-A*03:01; [5]): 4.95 nM
INMLKRVRNR,,,,,,Kd (HLA-A*31:01; [5]): 1570 nM
IQFMMSRRR,,,,,,Kd (HLA-A*03:01; [1]): 353 nM; Kd (HLA-A*11:01; [1]): 369 nM; Kd (HLA-A*31:01; [1]): 4.4 nM; Kd (HLA-A*33:01; [1]): 1.44 µM; Kd (HLA-A*68:01; [1]): 1490 nM
